Results on 1 molecule are retold here after US20050053913A1 (Johns Hopkins, published 2005).

The experiment has as its target T1, GAL4-DB (amino acids 1-147) expressed alone (yeast, UniProt P04386 1-147).
T1 construct: range 1-147; Negative control, not fused to another polypeptide; also called pPC97
Kind of experiment: yeast reporter SPAL5:URA3, growth on Sc-ura and 5-FOA.

T1 sequence (P04386 1-147 limits assumed): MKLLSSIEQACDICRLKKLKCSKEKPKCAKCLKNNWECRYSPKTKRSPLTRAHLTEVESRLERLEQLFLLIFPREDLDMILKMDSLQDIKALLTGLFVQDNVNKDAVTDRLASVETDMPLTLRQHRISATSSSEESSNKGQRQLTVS
Text: In this example, we employed the SPAL5:URA3 allele, which carries 5 GBSs.

B1: GAL4-AD (amino acids 768-881) expressed alone (other, yeast, UniProt P04386 768-881, looked up)
chain: ANFNQSGNIADSSLSFTFTNSSNGPNLITTQTNSQALSQPIASSNVHDNFMNNEITASKIDDGNNSKPLSPGWTDQTAYNAFGITTGMFNTTTMDDVYNYLFDDEDTPPNPKKE
notes: range 768-881; Negative control, not fused to another polypeptide; also called AD empty (pPC86); pPC86
Regarding B1, the binding result is given as “no binding”.
